This data set concerns ATF 3r (six-zinc-finger artificial transcription factor with NLS, VP64 and HA tag) (artificial/designed (expressed in E. coli BL21)). Description: EMSA. The settings on record: EMSA: 2.5% glycerol, 5 mM MgCl2, 0.05% NP-40, 50 mM KCl, 20 uL, 20 pmol DNA, 0 C 1 h; 4-8% native PAGE in TBE pH 8.2-8.4, 5 C, SYBR Safe stain; binding pH not ….

Consider IFNG target dsDNA (ATF 3 site), for which the dissociation constant Kd was 5.2 nM.
